First the molecules themselves.
T1: PUF4 RNA-binding domain (Saccharomyces cerevisiae, UniProt P25339 537-888)
T1 sequence: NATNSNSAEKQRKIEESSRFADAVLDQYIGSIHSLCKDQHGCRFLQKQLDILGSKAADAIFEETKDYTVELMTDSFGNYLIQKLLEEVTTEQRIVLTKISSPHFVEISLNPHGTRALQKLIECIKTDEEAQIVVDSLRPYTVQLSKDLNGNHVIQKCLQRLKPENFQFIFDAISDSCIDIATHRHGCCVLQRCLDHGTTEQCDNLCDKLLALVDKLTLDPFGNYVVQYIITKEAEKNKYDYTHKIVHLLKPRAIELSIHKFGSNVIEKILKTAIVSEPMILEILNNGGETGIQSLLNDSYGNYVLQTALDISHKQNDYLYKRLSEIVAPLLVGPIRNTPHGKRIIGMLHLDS

B1: Ia_S1_P4E.1_K4.1_C4.1_H4.1_A4.1_[T7G]_F4.1_T4.1 (ssRNA)
RNA: UCUCUUUGUAUAGUAUCUCUU
B2: Id_ii_S1_P3E.4_K3.3_C3.2_[C-2T]_H3.3_A3.1_F3.1_T3.2_[T9A]_[A10T] (ssRNA)
RNA: UCUCUUUUACACUAUAAUUCUCUU
B3: Id_ii_S1_P3E.4_K3.3_C3.2_[C-2A]_H3.3_A3.1_F3.1_T3.2_[A10C] (ssRNA)
RNA: UCUCUUAUACACUAUAUCUCUCUU
B4: Ib_S1_P4E.1_K4.1_C4.1_H4.1_[G2A]_A4.1_[A6G]_F4.1_T4.1 (ssRNA)
RNA: UCUCUUUAUAUGUUAUCUCUU
B5: Id_ii_S1_P3E.4_K3.3_C3.2_[C-2A]_H3.3_A3.1_F3.1_T3.2_[T9G]_[A10C] (ssRNA)
RNA: UCUCUUAUACACUAUAGCUCUCUU
B6: Id_ii_S1_P3E.4_K3.3_C3.2_[C-2A]_H3.3_A3.1_F3.1_T3.2_[A10T] (ssRNA)
RNA: UCUCUUAUACACUAUAUUUCUCUU
B7: Id_ii_S1_P3E.4_K3.3_C3.2_[C-2T]_[T-1G]_H3.3_A3.1_F3.1_T3.2_[T9A]_[A10T] (ssRNA)
RNA: UCUCUUUGACACUAUAAUUCUCUU
B8: Ib_S1_P4E.1_K4.1_C4.1_H4.1_[G2A]_A4.1_[A6C]_F4.1_T4.1 (ssRNA)
RNA: UCUCUUUAUAUCUUAUCUCUU
B9: Id_ii_S1_P3E.4_K3.3_C3.2_[C-2G]_H3.3_A3.1_F3.1_T3.2 (ssRNA)
RNA: UCUCUUGUACACUAUAUAUCUCUU
B10: Id_ii_S1_P3E.4_K3.3_C3.2_[C-2A]_[T-1A]_H3.3_A3.1_F3.1_T3.2_[T9A]_[A10C] (ssRNA)
RNA: UCUCUUAAACACUAUAACUCUCUU
B11: Id_ii_S1_P3E.4_K3.3_C3.2_[C-2G]_H3.3_A3.1_F3.1_T3.2_[T9C]_[A10C] (ssRNA)
RNA: UCUCUUGUACACUAUACCUCUCUU
B12: Id_ii_S1_P3E.4_K3.3_C3.2_[C-2T]_[T-1A]_H3.3_A3.1_F3.1_T3.2_[T9C]_[A10G] (ssRNA)
RNA: UCUCUUUAACACUAUACGUCUCUU
B13: Id_ii_S1_P3E.4_K3.3_C3.2_[C-2A]_H3.3_A3.1_F3.1_T3.2_[T9A]_[A10T] (ssRNA)
RNA: UCUCUUAUACACUAUAAUUCUCUU
B14: Id_ii_S1_P3E.4_K3.3_C3.2_[C-2T]_H3.3_A3.1_F3.1_T3.2_[A10G] (ssRNA)
RNA: UCUCUUUUACACUAUAUGUCUCUU
B15: Id_ii_S1_P3E.4_K3.3_C3.2_[C-2A]_[T-1C]_H3.3_A3.1_F3.1_T3.2_[A10T] (ssRNA)
RNA: UCUCUUACACACUAUAUUUCUCUU
B16: Id_ii_S1_P3E.4_K3.3_C3.2_[C-2G]_H3.3_A3.1_F3.1_T3.2_[A10C] (ssRNA)
RNA: UCUCUUGUACACUAUAUCUCUCUU
B17: Id_ii_S1_P3E.4_K3.3_C3.2_[C-2A]_H3.3_A3.1_F3.1_T3.2_[T9C]_[A10C] (ssRNA)
RNA: UCUCUUAUACACUAUACCUCUCUU
B18: Id_ii_S1_P3E.4_K3.3_C3.2_[C-2T]_H3.3_A3.1_F3.1_T3.2_[T9C]_[A10C] (ssRNA)
RNA: UCUCUUUUACACUAUACCUCUCUU
B19: Id_ii_S1_P3E.4_K3.3_C3.2_[C-2A]_[T-1G]_H3.3_A3.1_F3.1_T3.2_[T9A]_[A10T] (ssRNA)
RNA: UCUCUUAGACACUAUAAUUCUCUU
B20: Id_ii_S1_P3E.4_K3.3_C3.2_[C-2A]_[T-1G]_H3.3_A3.1_F3.1_T3.2_[T9A] (ssRNA)
RNA: UCUCUUAGACACUAUAAAUCUCUU
B21: Id_ii_S1_P3E.4_K3.3_C3.2_[C-2G]_H3.3_A3.1_F3.1_T3.2_[A10T] (ssRNA)
RNA: UCUCUUGUACACUAUAUUUCUCUU
B22: Id_ii_S1_P3E.4_K3.3_C3.2_[C-2T]_[T-1G]_H3.3_A3.1_F3.1_T3.2_[T9A] (ssRNA)
RNA: UCUCUUUGACACUAUAAAUCUCUU
B23: Id_ii_S1_P3E.4_K3.3_C3.2_[C-2T]_[T-1C]_H3.3_A3.1_F3.1_T3.2_[T9A]_[A10T] (ssRNA)
RNA: UCUCUUUCACACUAUAAUUCUCUU
B24: Ib_S1_P4E.1_K4.1_C4.1_H4.1_[G2T]_A4.1_[A6T]_F4.1_T4.1 (ssRNA)
RNA: UCUCUUUUUAUUUUAUCUCUU
B25: Id_ii_S1_P3E.4_K3.3_C3.2_[C-2A]_[T-1A]_H3.3_A3.1_F3.1_T3.2_[T9A] (ssRNA)
RNA: UCUCUUAAACACUAUAAAUCUCUU
B26: Id_ii_S1_P3E.4_K3.3_C3.2_[C-2A]_H3.3_A3.1_F3.1_T3.2_[T9C]_[A10T] (ssRNA)
RNA: UCUCUUAUACACUAUACUUCUCUU
B27: Id_ii_S1_P3E.4_K3.3_C3.2_[C-2T]_[T-1C]_H3.3_A3.1_F3.1_T3.2_[A10T] (ssRNA)
RNA: UCUCUUUCACACUAUAUUUCUCUU
B28: Id_ii_S1_P3E.4_K3.3_C3.2_[C-2G]_H3.3_A3.1_F3.1_T3.2_[T9A]_[A10C] (ssRNA)
RNA: UCUCUUGUACACUAUAACUCUCUU
B29: Id_ii_S1_P3E.4_K3.3_C3.2_[C-2G]_[T-1C]_H3.3_A3.1_F3.1_T3.2_[T9A]_[A10C] (ssRNA)
RNA: UCUCUUGCACACUAUAACUCUCUU

The data set addresses T1, PUF4 RNA-binding domain. The experiment in a line: Mg; RNA-MaP; 20 mM Na-HEPES pH 7.4, 30 mM KOAc, 0.75 mM MgCl2, 0.1% Tween-20, 5% glycerol, 0.1 mg/mL BSA, 2 mM DTT; 25 C; 0.0125-409.6 nM protein. Conditions: tags: N-His6-TEV cleaved; C-SNAP kept, Cy3B-labelled; label: tethered on chip by stalled RNA polymerase.
In general, Kd refers to the equilibrium constant for the complex coming apart. High values mean weaker binding, low ones tighter binding. B1: the affinity, expressed as Kd, was 2.25 nM.

For the molecule B2, the Kd is more than 2300 nM.

In turn, B3 came in with a Kd of 40.6 nM.

In the case of B4, binding was characterised by a dissociation constant (Kd) of 635 nM.

With B5, the dissociation constant Kd is 45.7 nM.

For B6, the Kd was 38.6 nM.

In turn, B7 yielded an equilibrium dissociation constant (Kd) of more than 2300 nM.

B8 returned a dissociation constant (Kd) of 672 nM.

Molecule B9 had a dissociation constant (Kd) of 0.819 nM.

For the molecule B10, the Kd is more than 2300 nM.

B11 gave a Kd of 0.984 nM.

B12 showed a Kd of more than 2300 nM.

With B13, the Kd was determined as 43.5 nM.

B14: the Kd was found to be 2220 nM.

B15 returned a Kd of more than 2300 nM.

In turn, B16 registered a Kd of 0.836 nM.

Regarding B17, binding was characterised by a dissociation constant (Kd) of 30.1 nM.

In turn, B18 had a Kd of 1910 nM.

B19 gave an equilibrium dissociation constant (Kd) of more than 2300 nM.

In turn, B20 displayed a Kd of more than 2300 nM.

Regarding B21, the Kd turned out to be 0.901 nM.

Regarding B22, the Kd is more than 2300 nM.

Turning to B23, the Kd was more than 2300 nM.

B24: the Kd was more than 2300 nM.

B25 yielded a Kd of more than 2300 nM.

The molecule B26 gave a Kd of 36.1 nM.

As to B27, the equilibrium dissociation constant (Kd) was more than 2300 nM.

As for B28, the Kd came to 1.63 nM.

As to B29, the Kd was found to be 110 nM.

(Values after publication PMC9352680, “A comprehensive thermodynamic model for RNA binding by the Saccharomyces cerevisiae Pumilio protein PUF4”.)
